Results taken from PMC9688318, “Construction of a Versatile, Programmable RNA-Binding Protein Using Designer PPR Proteins and Its Application for Splicing Control in Mammalian Cells”.

Tests used:
[1] = test system: PPR2.0t4 (synthetic designer (scaffold from Arabidopsis PPR consensus)); assay: EMSA; conditions: apparent; EMSA: 20 mM Tris-HCl pH 8.0, 150 mM NaCl, 0.5% NP-40, 1 mM DTT, 1 mM EDTA, 0.2 pmol biotin-RNA in 10 uL, 6% PAGE in 0.5x TBE; temperature not stated; RBP-ELISA …
[2] = test system: PPR2.0t4 (synthetic designer (scaffold from Arabidopsis PPR consensus)); assay: RBP-ELISA; conditions: cell lysate, EMSA: 20 mM Tris-HCl pH 8.0, 150 mM NaCl, 0.5% NP-40, 1 mM DTT, 1 mM EDTA, 0.2 pmol biotin-RNA in 10 uL, 6% PAGE in 0.5x TBE, temperature not stated
[3] = test system: PPR2.0t14 (synthetic designer (scaffold from Arabidopsis PPR consensus)); assay: EMSA; conditions: apparent; EMSA: 20 mM Tris-HCl pH 8.0, 150 mM NaCl, 0.5% NP-40, 1 mM DTT, 1 mM EDTA, 0.2 pmol biotin-RNA in 10 uL, 6% PAGE in 0.5x TBE; temperature not stated; RBP-ELISA …
[4] = test system: PPR2.0t14 (synthetic designer (scaffold from Arabidopsis PPR consensus)); assay: RBP-ELISA; conditions: cell lysate, EMSA: 20 mM Tris-HCl pH 8.0, 150 mM NaCl, 0.5% NP-40, 1 mM DTT, 1 mM EDTA, 0.2 pmol biotin-RNA in 10 uL, 6% PAGE in 0.5x TBE, temperature not stated
[5] = test system: PPR2.0t5 (synthetic designer (scaffold from Arabidopsis PPR consensus)); assay: EMSA; conditions: apparent; EMSA: 20 mM Tris-HCl pH 8.0, 150 mM NaCl, 0.5% NP-40, 1 mM DTT, 1 mM EDTA, 0.2 pmol biotin-RNA in 10 uL, 6% PAGE in 0.5x TBE; temperature not stated; RBP-ELISA …
[6] = test system: PPR2.0t5 (synthetic designer (scaffold from Arabidopsis PPR consensus)); assay: RBP-ELISA; conditions: cell lysate, EMSA: 20 mM Tris-HCl pH 8.0, 150 mM NaCl, 0.5% NP-40, 1 mM DTT, 1 mM EDTA, 0.2 pmol biotin-RNA in 10 uL, 6% PAGE in 0.5x TBE, temperature not stated
[7] = test system: PPR2.0t3 (synthetic designer (scaffold from Arabidopsis PPR consensus)); assay: EMSA; conditions: apparent; EMSA: 20 mM Tris-HCl pH 8.0, 150 mM NaCl, 0.5% NP-40, 1 mM DTT, 1 mM EDTA, 0.2 pmol biotin-RNA in 10 uL, 6% PAGE in 0.5x TBE; temperature not stated; RBP-ELISA …
[8] = test system: PPR2.0t3 (synthetic designer (scaffold from Arabidopsis PPR consensus)); assay: RBP-ELISA; conditions: cell lysate, EMSA: 20 mM Tris-HCl pH 8.0, 150 mM NaCl, 0.5% NP-40, 1 mM DTT, 1 mM EDTA, 0.2 pmol biotin-RNA in 10 uL, 6% PAGE in 0.5x TBE, temperature not stated
[9] = test system: PPR2.0t23 (synthetic designer (scaffold from Arabidopsis PPR consensus)); assay: EMSA; conditions: apparent; EMSA: 20 mM Tris-HCl pH 8.0, 150 mM NaCl, 0.5% NP-40, 1 mM DTT, 1 mM EDTA, 0.2 pmol biotin-RNA in 10 uL, 6% PAGE in 0.5x TBE; temperature not stated; RBP-ELISA …
[10] = test system: PPR2.0t23 (synthetic designer (scaffold from Arabidopsis PPR consensus)); assay: RBP-ELISA; conditions: cell lysate, EMSA: 20 mM Tris-HCl pH 8.0, 150 mM NaCl, 0.5% NP-40, 1 mM DTT, 1 mM EDTA, 0.2 pmol biotin-RNA in 10 uL, 6% PAGE in 0.5x TBE, temperature not stated
[11] = test system: PPR2.0t24 (synthetic designer (scaffold from Arabidopsis PPR consensus)); assay: EMSA; conditions: apparent; EMSA: 20 mM Tris-HCl pH 8.0, 150 mM NaCl, 0.5% NP-40, 1 mM DTT, 1 mM EDTA, 0.2 pmol biotin-RNA in 10 uL, 6% PAGE in 0.5x TBE; temperature not stated; RBP-ELISA …
[12] = test system: PPR2.0t1 (synthetic designer (scaffold from Arabidopsis PPR consensus)); assay: EMSA; conditions: apparent; EMSA: 20 mM Tris-HCl pH 8.0, 150 mM NaCl, 0.5% NP-40, 1 mM DTT, 1 mM EDTA, 0.2 pmol biotin-RNA in 10 uL, 6% PAGE in 0.5x TBE; temperature not stated; RBP-ELISA …
[13] = test system: PPR2.0t1 (synthetic designer (scaffold from Arabidopsis PPR consensus)); assay: RBP-ELISA; conditions: cell lysate, EMSA: 20 mM Tris-HCl pH 8.0, 150 mM NaCl, 0.5% NP-40, 1 mM DTT, 1 mM EDTA, 0.2 pmol biotin-RNA in 10 uL, 6% PAGE in 0.5x TBE, temperature not stated
[14] = test system: PPR2.0t2 (synthetic designer (scaffold from Arabidopsis PPR consensus)); assay: EMSA; conditions: apparent; EMSA: 20 mM Tris-HCl pH 8.0, 150 mM NaCl, 0.5% NP-40, 1 mM DTT, 1 mM EDTA, 0.2 pmol biotin-RNA in 10 uL, 6% PAGE in 0.5x TBE; temperature not stated; RBP-ELISA …
[15] = test system: PPR2.0t2 (synthetic designer (scaffold from Arabidopsis PPR consensus)); assay: RBP-ELISA; conditions: cell lysate, EMSA: 20 mM Tris-HCl pH 8.0, 150 mM NaCl, 0.5% NP-40, 1 mM DTT, 1 mM EDTA, 0.2 pmol biotin-RNA in 10 uL, 6% PAGE in 0.5x TBE, temperature not stated
[16] = test system: PPR2.0t15 (synthetic designer (scaffold from Arabidopsis PPR consensus)); assay: EMSA; conditions: apparent; EMSA: 20 mM Tris-HCl pH 8.0, 150 mM NaCl, 0.5% NP-40, 1 mM DTT, 1 mM EDTA, 0.2 pmol biotin-RNA in 10 uL, 6% PAGE in 0.5x TBE; temperature not stated; RBP-ELISA …
[17] = test system: PPR2.0t15 (synthetic designer (scaffold from Arabidopsis PPR consensus)); assay: RBP-ELISA; conditions: cell lysate, EMSA: 20 mM Tris-HCl pH 8.0, 150 mM NaCl, 0.5% NP-40, 1 mM DTT, 1 mM EDTA, 0.2 pmol biotin-RNA in 10 uL, 6% PAGE in 0.5x TBE, temperature not stated
[18] = test system: PPR2.0t19 (synthetic designer (scaffold from Arabidopsis PPR consensus)); assay: EMSA; conditions: apparent; EMSA: 20 mM Tris-HCl pH 8.0, 150 mM NaCl, 0.5% NP-40, 1 mM DTT, 1 mM EDTA, 0.2 pmol biotin-RNA in 10 uL, 6% PAGE in 0.5x TBE; temperature not stated; RBP-ELISA …
[19] = test system: PPR2.0t19 (synthetic designer (scaffold from Arabidopsis PPR consensus)); assay: RBP-ELISA; conditions: cell lysate, EMSA: 20 mM Tris-HCl pH 8.0, 150 mM NaCl, 0.5% NP-40, 1 mM DTT, 1 mM EDTA, 0.2 pmol biotin-RNA in 10 uL, 6% PAGE in 0.5x TBE, temperature not stated
[20] = test system: PPR2.0t8 (synthetic designer (scaffold from Arabidopsis PPR consensus)); assay: EMSA; conditions: apparent; EMSA: 20 mM Tris-HCl pH 8.0, 150 mM NaCl, 0.5% NP-40, 1 mM DTT, 1 mM EDTA, 0.2 pmol biotin-RNA in 10 uL, 6% PAGE in 0.5x TBE; temperature not stated; RBP-ELISA …
[21] = test system: PPR2.0t8 (synthetic designer (scaffold from Arabidopsis PPR consensus)); assay: RBP-ELISA; conditions: cell lysate, EMSA: 20 mM Tris-HCl pH 8.0, 150 mM NaCl, 0.5% NP-40, 1 mM DTT, 1 mM EDTA, 0.2 pmol biotin-RNA in 10 uL, 6% PAGE in 0.5x TBE, temperature not stated
[22] = test system: PPR2.0t11 (synthetic designer (scaffold from Arabidopsis PPR consensus)); assay: EMSA; conditions: apparent; EMSA: 20 mM Tris-HCl pH 8.0, 150 mM NaCl, 0.5% NP-40, 1 mM DTT, 1 mM EDTA, 0.2 pmol biotin-RNA in 10 uL, 6% PAGE in 0.5x TBE; temperature not stated; RBP-ELISA …
[23] = test system: PPR2.0t11 (synthetic designer (scaffold from Arabidopsis PPR consensus)); assay: RBP-ELISA; conditions: cell lysate, EMSA: 20 mM Tris-HCl pH 8.0, 150 mM NaCl, 0.5% NP-40, 1 mM DTT, 1 mM EDTA, 0.2 pmol biotin-RNA in 10 uL, 6% PAGE in 0.5x TBE, temperature not stated

GACAUGCGGCAAAAAGAUCACUGUAGACUG [Probe_t4]
Kd [1]: 2.57 nM | binding signal [2]: 5.98e+07 luminescence

GACAUGCGCAGAUAAUUAAUAAGAAGACUG [Probe_t14]
Kd [3]: 197 nM | binding signal [4]: 1.33e+07 luminescence

GACAUGCCAACAUCAGUCUGAUAAGGACUG [Probe_t5]
Kd [5]: 167 nM | binding signal [6]: 1.67e+07 luminescence

GACAUGCCUGAGUCAUAACCAGCCUGACUG [Probe_t3]
Kd [7]: 59.2 nM | binding signal [8]: 3.35e+07 luminescence

GACAUGCCCCAUAGAUGUGACAAGCGACUG [Probe_t23]
Kd [9]: 10.4 nM | binding signal [10]: 3.27e+07 luminescence

GACAUGCGGCGGGGCACUGUGCGUGGACUG [Probe_t24]
Kd [11]: 11 nM

GACAUGCGAAUGAACUCUUCCGGGAGACUG [Probe_t1]
Kd [12]: 3.45 nM | binding signal [13]: 6.64e+07 luminescence

GACAUGCGAGAGGAAGCCUGAGAGUGACUG [Probe_t2]
Kd [14]: 4 nM | binding signal [15]: 5.68e+07 luminescence

GACAUGCAAGGAUAAUAUCAAACACGACUG [Probe_t15]
Kd [16]: 41 nM | binding signal [17]: 2.84e+07 luminescence

GACAUGCGUGAUGUGGAGUUAAGGCGACUG [Probe_t19]
Kd [18]: 173 nM | binding signal [19]: 1.19e+07 luminescence

GACAUGCCACUAUUUAAGUUAUCAAGACUG [Probe_t8]
Kd [20]: 1.95 nM | binding signal [21]: 4.7e+07 luminescence

GACAUGCGACUCAGGAAUCGGCUCUGACUG [Probe_t11]
Kd [22]: 63.3 nM | binding signal [23]: 3.78e+07 luminescence
